Ends that are not written are not given here.
B4: adaptor protein FADD (other, UniProt Q13158 1-208, looked up)
chain: MDPFLVLLHSVSSSLSSSELTELKFLCLGRVGKRKLERVQSGLDLFSMLLEQNDLEPGHTELLRELLASLRRHDLLRRVDDFEAGAAAGAAPGEEDLCAAFNVICDNVGKDWRRLARQLKVSDTKIDSIEDRYPRNLTERVRESLRIWKNTEKENATVAHLVGALRSCQMNLVADLVQEVQQARDLQNRSGAMSPMSWNSDASTSEAS
notes: Detected with an anti-human FADD mAb (clone 1); also called Fas-associated death domain protein

What was measured:
[1] = biological target: serum CD95L of SLE patients (soluble, homotrimeric) (human) (UniProt P48023); experiment: cell-based or functional assay
serum CD95L of SLE patients (soluble, homotrimeric) (human), sequence (P48023 130-281 limits assumed): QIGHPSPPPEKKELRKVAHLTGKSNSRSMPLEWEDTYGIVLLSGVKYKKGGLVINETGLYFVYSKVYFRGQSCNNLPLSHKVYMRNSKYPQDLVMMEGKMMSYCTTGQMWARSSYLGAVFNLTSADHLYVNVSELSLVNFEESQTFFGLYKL

[2] = biological target: T1, Myc-tagged full-length human PLCγ1 (human, UniProt P19174 1-1290); experiment: PLCγ1 immunoprecipitation from HEK cells co-transfected with PLCγ1 and CID-mCherry, immunoblot
T1 construct: Transfected into HEK cells; also called wild type PLCγ1; phospholipase Cγ1; not shown: Myc tag of the pTriEx-4 construct
T1 sequence (looked up): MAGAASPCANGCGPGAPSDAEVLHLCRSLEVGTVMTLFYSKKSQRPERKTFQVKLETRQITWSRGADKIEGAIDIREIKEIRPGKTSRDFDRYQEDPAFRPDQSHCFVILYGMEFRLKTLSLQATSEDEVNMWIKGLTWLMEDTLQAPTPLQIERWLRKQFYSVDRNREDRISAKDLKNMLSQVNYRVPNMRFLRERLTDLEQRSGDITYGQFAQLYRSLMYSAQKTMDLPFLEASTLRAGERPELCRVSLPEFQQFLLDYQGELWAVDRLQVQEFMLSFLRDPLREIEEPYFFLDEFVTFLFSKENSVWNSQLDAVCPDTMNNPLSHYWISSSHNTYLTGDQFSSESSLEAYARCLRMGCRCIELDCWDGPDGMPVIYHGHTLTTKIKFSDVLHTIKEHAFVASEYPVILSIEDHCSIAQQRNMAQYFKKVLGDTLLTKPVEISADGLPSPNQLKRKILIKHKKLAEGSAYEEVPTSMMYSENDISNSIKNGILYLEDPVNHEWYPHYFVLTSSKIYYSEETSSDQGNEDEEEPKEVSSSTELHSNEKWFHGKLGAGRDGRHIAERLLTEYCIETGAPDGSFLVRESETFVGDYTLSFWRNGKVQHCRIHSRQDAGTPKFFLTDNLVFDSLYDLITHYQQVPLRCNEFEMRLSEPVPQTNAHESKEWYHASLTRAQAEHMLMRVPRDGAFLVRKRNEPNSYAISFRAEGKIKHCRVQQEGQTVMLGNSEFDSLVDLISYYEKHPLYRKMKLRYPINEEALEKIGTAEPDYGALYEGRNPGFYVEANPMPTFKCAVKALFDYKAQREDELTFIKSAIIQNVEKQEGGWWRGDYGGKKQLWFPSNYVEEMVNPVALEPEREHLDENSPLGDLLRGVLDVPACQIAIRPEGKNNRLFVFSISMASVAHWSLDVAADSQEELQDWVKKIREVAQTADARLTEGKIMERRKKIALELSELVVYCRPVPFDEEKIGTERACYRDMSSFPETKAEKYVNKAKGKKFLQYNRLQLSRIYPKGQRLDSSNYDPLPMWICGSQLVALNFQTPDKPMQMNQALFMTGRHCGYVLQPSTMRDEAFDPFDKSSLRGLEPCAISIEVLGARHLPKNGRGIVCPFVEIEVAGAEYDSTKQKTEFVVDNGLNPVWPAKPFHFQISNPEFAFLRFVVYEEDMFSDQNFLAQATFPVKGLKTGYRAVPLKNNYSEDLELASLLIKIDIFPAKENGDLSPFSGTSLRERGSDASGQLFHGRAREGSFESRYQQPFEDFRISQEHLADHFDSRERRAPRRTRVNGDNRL

adaptor protein FADD = biological target: B4; experiment: co-immunoprecipitation with CD95 from transfected HEK cells stimulated with CD95L, immunoblot
[3] = biological target: T1, Myc-tagged full-length human PLCγ1; experiment: as above
GFP-fused CD95^1-210 = biological target: T2, GFP-fused CD95^1-210 (human, UniProt P25445 17-226); experiment: as above
T2 construct: also called CD95 construct devoid of DD; not shown: GFP of vector pEGFP-N1 (Clontech), fused C-terminally
T2 sequence: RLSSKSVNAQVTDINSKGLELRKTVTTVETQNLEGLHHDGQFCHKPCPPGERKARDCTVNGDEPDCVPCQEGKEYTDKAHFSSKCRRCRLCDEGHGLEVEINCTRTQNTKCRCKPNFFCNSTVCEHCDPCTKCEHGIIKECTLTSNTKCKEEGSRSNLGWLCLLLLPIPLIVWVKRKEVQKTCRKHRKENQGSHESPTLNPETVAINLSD

B1: neutralizing anti-CD95L mAb (Nok1) (antibody, from another filing, V domains shown)
VH: VQLQESGPELVKPGASVKISCKASGYAFSSSWMNWVKQRPGKGLEWIGRIYPGDGDTNDNGKFKGKATLTADKSSSTAYMQLSSLTSEDSAVYFCARSYYYDGSPWFTYWGQGTTVTVSS
VL: DIQMTQSPSSLSASLGDRVTISCRASQDISNYLNWYQQKPDGTVKLLIYYTSRLHSGVPSRFSGSGSGTDYSLTISNLEPEDIATYFCQQYSEFPWTFGGGTKLEIKR
B1 gave a T-cell transmigration induced by fractions 76-78 [1] of under 50%.

B2: CD95^(175-210)-mCherry (other)
chain: KRKEVQKTCRKHRKENQGSHESPTLNPETVAINLSD-mCherry
modifications: also: mCherry fused C-terminally, junction not given here
notes: Expressed in HEK cells together with PLCγ1; also called CID-mCherry; CID-mCHERRY; not shown: mCherry of vector pmCHERRY-N1, fused C-terminally
B2: binds [2].

B3: GFP-fused CD95^1-175 (receptor)
chain: RLSSKSVNAQVTDINSKGLELRKTVTTVETQNLEGLHHDGQFCHKPCPPGERKARDCTVNGDEPDCVPCQEGKEYTDKAHFSSKCRRCRLCDEGHGLEVEINCTRTQNTKCRCKPNFFCNSTVCEHCDPCTKCEHGIIKECTLTSNTKCKEEGSRSNLGWLCLLLLPIPLIVWVK
notes: also called CD95 devoid of the entire intracellular domain; not shown: GFP of vector pEGFP-N1 (Clontech), fused C-terminally
B3: no binding (adaptor protein FADD); no binding [3].

B4: no binding (GFP-fused CD95^1-210).

— patent US20170044234A1 (INSERM INSTITUT NATIONAL DE LA SANTE ET DE LA RECHERCHE …, published 2017)
